Source: patent US20240035036A1 (UNIVERSITE DE GENEVE, published 2024)

T1: FljK flagellin protein from Caulobacter crescentus
T1 chain: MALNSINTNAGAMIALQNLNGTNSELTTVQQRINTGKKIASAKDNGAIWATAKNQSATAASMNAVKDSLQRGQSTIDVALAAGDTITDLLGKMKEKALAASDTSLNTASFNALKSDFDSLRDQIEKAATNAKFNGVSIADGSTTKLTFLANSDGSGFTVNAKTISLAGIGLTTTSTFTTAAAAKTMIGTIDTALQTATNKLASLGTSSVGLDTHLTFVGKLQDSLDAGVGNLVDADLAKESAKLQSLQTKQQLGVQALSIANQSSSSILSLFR

T2: Flagellin Modification Protein (FlmG) from Caulobacter crescentus (Caulobacter crescentus, UniProt P21296 1-596)
T2 construct: Natural full-length glycosyltransferase, expressed in cells (C. crescentus, S. fredii NGR234, E. coli); It has an N-terminal TPR domain and a C-terminal GT-B-like glycosyltransferase domain; also called FlbA; CC_1457
T2 sequence: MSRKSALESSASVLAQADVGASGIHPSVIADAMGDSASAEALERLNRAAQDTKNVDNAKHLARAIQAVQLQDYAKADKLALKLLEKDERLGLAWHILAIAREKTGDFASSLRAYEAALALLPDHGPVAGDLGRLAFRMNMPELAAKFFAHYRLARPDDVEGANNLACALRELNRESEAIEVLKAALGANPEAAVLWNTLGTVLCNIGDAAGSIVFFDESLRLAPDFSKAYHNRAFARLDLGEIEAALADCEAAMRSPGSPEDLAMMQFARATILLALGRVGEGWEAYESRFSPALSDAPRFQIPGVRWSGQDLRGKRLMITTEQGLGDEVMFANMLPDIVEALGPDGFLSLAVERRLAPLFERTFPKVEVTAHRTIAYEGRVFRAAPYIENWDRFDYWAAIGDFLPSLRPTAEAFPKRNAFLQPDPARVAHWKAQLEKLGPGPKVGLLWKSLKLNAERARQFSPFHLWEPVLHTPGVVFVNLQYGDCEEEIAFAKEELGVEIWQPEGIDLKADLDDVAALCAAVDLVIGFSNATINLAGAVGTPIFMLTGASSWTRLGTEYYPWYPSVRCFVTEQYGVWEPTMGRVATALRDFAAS

B1: Flagellin Modification Protein (FlmG) from Caulobacter crescentus (protein)
chain: T2 sequence
B2: FljK flagellin protein from Caulobacter crescentus (other)
chain: T1 chain
notes: In the glycosylation experiments it was expressed unfused in cells; also called CC_1461

Assays:
[1] = target: T1, FljK flagellin protein from Caulobacter …
[2] = target: T2, Flagellin Modification Protein (FlmG) …; assay: summary of example 1 (BACTH and domain analysis)

Binder	FljK glycosylation (migration on anti-FljK immunoblot) in E. coli co-expressing FljK, FlmG and the synthetic flm operon [1]	flagellin modification (SDS-PAGE mobility shift of FljK by immunoblot) on co-expression in S. fredii NGR234 [1]	binding result [2]
B1	in the presence of pUCITD-flm FljK migration is shifted towards higher molecular weight, as in Caulobacter crescentus wild-type (WT) cells	upon co-expression of FlmG, FljK shifted to a species with higher molecular mass	
B2			binds
